In publication PMC11384114 one finds luciferase activity, fold over the control co-expressing cLUC and nLUC (times the control) data, which are given here for one substance.

In the assay the target is cLUC-SlPIF4 (tomato (Solanum lycopersicum)). Nature of the assay: split reporter (BiFC, NanoBiT); split luciferase complementation: cLUC-SlPIF4 and nLUC-SlDELLA co-expressed in N. benthamiana leaves for 2 days; 1 mM D-luciferin; camera and microplate luminometer.
cLUC-SlPIF4 (tomato (Solanum lycopersicum)), sequence (main, as listed by the source): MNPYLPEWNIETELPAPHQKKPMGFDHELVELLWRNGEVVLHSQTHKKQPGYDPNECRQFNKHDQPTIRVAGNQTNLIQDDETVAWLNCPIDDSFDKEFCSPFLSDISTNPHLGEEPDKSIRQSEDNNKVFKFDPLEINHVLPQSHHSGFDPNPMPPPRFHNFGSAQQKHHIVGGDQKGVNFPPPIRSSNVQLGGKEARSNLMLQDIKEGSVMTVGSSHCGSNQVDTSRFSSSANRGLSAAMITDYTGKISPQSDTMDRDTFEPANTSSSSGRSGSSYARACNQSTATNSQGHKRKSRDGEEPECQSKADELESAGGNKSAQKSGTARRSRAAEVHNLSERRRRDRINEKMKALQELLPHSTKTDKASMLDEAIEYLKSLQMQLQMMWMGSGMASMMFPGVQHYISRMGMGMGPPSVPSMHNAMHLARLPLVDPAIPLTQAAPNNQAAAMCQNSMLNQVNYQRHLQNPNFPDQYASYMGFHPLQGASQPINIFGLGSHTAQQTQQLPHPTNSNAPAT

Take nLUC-SlDELLA (natural protein): the luciferase activity, fold over the control co-expressing cLUC and nLUC (times the control) was 170.
